Reference: patent publication US7381413

Target: Fas (CD95) on L1210 and L1210/DDP cells (UniProt P25446)
Test: cell-based or functional assay

Sequence of UniProt P25446 (P25446 22-327 limits assumed): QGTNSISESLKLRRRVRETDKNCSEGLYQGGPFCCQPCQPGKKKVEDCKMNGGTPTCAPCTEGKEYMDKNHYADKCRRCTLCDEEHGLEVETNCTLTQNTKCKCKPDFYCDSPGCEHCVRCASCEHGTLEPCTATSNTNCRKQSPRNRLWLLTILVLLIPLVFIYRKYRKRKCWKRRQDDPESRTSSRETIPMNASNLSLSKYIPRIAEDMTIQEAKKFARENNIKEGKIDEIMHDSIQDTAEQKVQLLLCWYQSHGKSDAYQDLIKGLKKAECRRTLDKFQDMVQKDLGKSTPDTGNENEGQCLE

In the case of anti-Fas antibody Jo2.2 (Pharmingen), the % dead cells over background of untreated cells, L1210/0 on anti-Fas coated plates is reported as 80% and the % dead cells over background of untreated cells, L1210/DDP on anti-Fas coated plates is reported as 46.6%.
